Source: article PMC3229553

Target: Orb (Drosophila (endogenous in ovaries))
Test: co-IP; wild type ovary extract precipitated with Orb antibody coupled to protein A/G beads, room temperature 2 hours; Co-IP buffer 20 mM Hepes pH 7.5, 150 mM NaCl, 2.5 mM MgCl2, 250 mM sucrose, 0.05% NP40, 0.5% Triton-X, with RNase A; Western blot for Cup; HA antibody as negative control

B1: Cup (natural protein)
chain: MQMAEAEQENGAGALKIATNAGATDRPAHQQLPLPVEDQQDEVLTPAEKGKFEYPPPPPPPTPVQAPLATKATALNASQEHDDDEANSEKWEDPCAPPPPPPLPTSAFLATGLGYLKLPAFKLKDALEKAITKLEANKRTLKASPESSRSIKNKNVVALEMLPRRSNPETIGDGSMLASTSTAVMLQTKKPAVIVEMERRCKIINLLAKQNQILESISGEAIPMHGPSKHLHEDEGLTLQVLSARASTPYTQPSSMLSCTAVSCDLEHDSPRKQVASKEAVPEQQSSQVQQKRPPSTGIHKPGSLRAPKAVRPTTAPVVSSKPVKSYTRSRLMDIRNGMFNALMHRSKESFVMPRIATCDDIELEGRLRRMNIWRTSDGTRFRTRSTTANLNMNNNNNNECMPAFFKNKNKPNLISDESIIQSQPPQPQTEFQDPAIVNQRRIGSGRLNHSKWGYNDEDYHSYHNGKSQHMEEVNSKNSKNMTVLQFFDNGEISSQPQRRPNTPVMGMSINRSENDTLHSNESSEDLSRANENYVKRVMSGFLVVSKPKSRDVEDRHHRRYRNQNEEPEWFSCGPTSRLDTIELCGFDEDEEKMLKEGNKNHGLGETERETSKQKMDHKYKWTHAEPMGRSKYMPKHDTNNNHNVENMNNVMATEHQQQKEEKRPGSGRSFQFDKFNQSQQNYESSSYVNHQQPPQTQPQQMQQQSNTNTNNSKFMSFFANEGNSSSSSLNEFFKQAINQGHGNNPEQPKSLGHIGQMPSVDQLEAKWRRNSLNNVGETANKQTDNFQKLIGSLSSAKPQSQAVGYDAISNFIMQQQQYQQQQQKQHLIIQQQQQHTAFLASLQLKAILGRADTQLLLLRLTKGEISKHGLLVQLANPRLTDMDREAITAVLQFTNTQQQQQQHKQQLDMLSSTVIASQLQNLHNLAIVQQTLAARQQPQHNPQTQAPHQLSQEDLQAHANVIMRNAVMKRKIEEQTSKLINGGAKHQAQQQYLNRGQQRQARPDANSNALLHALISGGGNNHASGYPMNGQPQKHHSNLRFGDNQNFQSFESNQPHFATQYKQQYQQSQQQHPHQQPQQLNSLHQNNAGAVNSFNKAQMQAQSAISMLPNSGDEFH
- percent of Cup pulled down: 10%
